For experiment [1], the system named is vascular smooth muscle cells. The experiment in a line: Smooth muscle cell proliferation assay (tritiated thymidine incorporation). The experiment is classed as cell-based, mice. To be noted: for S100B-stimulated SMC proliferation in presence of inhibitor: preincubation with agent (Y27632 10 μM, fasudil 10 μM, anti-Tgf-β2 IgG 10 μg/ml vs IgG control), FIGS. 8C, 8E; for SMC proliferation on incubation with stimulant: FIG. 8A. The protocol: (§1) Wild-type and RAGE null mice vascular smooth muscle cells were isolated and cultured from the aorta and employed through passage 5 to 7. Migration assays were performed using the QCM Colorimetric Cell Migration Assay (Chemicon). Cells (3×10^5/well) were seeded into the upper chambers fitted with a lower 8 μm porous polycarbonate membrane, and the insert was placed in the lower chamber of a 24-well dish containing Dulbeccos' modified Eagle medium and no stimulant, S100B (10 μg/ml; generously provided by Dr. Guenter Fritz), Tgf-β2 (10 ng/ml; R&D Systems), or PDGF (10 ng/ml; R&D Systems) and incubated at 37° C. for 5 hrs and relative migration was measured according to the manufacturer's instructions. In experiments using anti-Tgf-β2 IgG and nonimmune IgG (10 μg/ml, both from Santa Cruz Biotechnology, Santa Cruz, Calif.), Y27632 (10 μM, Sigma Aldrich) and fasudil hydrochloride (10 μM, Tocris Bioscience, Ellisville Mo.) cells were preincubated with these agents or vehicle alone for 2 hrs in the case of antibodies and 30 mins in the case of Y27632 or fasudil at 37° C. prior to the addition to the chemotaxis chambers. Proliferation of cultured SMCs was quantified by measurement of incorporation of tritiated thymidine. SMCs were seeded at a density of 2×10^4 cells/wells in 24-well tissue culture-treated plates and incubated in serum-free DMEM for 16 hrs. Following a 2 hr preincubation with the indicated concentration of anti-Tgf-β2, nonimmune IgG, Y27632 or fasudil, cells were exposed to serum-free DMEM containing the indicated concentration of S100B or PDGF (10 ng/ml) along with 3H-thymidine (1 μCi/well). After the incubation period, cells were harvested 48 hrs later, and cellular proliferation was determined based on the incorporation of tritiated thymidine. Cell counting was performed and confirmed that increased trititated thymidine incorporation reflected an increase in cell number.

Experiment [2] relates to vascular smooth muscle cells. The experiment in a line: Smooth muscle cell migration assay (QCM Colorimetric Cell Migration Assay). The experiment is classed as cell-based, mice. To be noted: S100B 10 μg/ml; for S100B-stimulated SMC migration in presence of inhibitor: preincubation with agent (Y27632 10 μM, fasudil 10 μM, anti-Tgf-β2 IgG 10 μg/ml vs IgG control), FIGS. 8D, 8F; for SMC migration on incubation with stimulant: Tgf-β2 10 ng/ml, PDGF 10 ng/ml, FIG. 8B. The protocol: as §1

The subject of experiment [3] is ROCK1. The experiment in a line: ROCK1 activity assay (MYPT1 phosphorylation) on lysates of aorta or primary aortic SMCs. To be noted: S100B 10 μg/ml, FIG. 5B. Type of experiment: cell-based, murine. The procedure: Activation of ROCK1 was evaluated on lysates of aorta or primary murine aortic smooth muscle cells retrieved from wild-type or RAGE null mice. In the latter case, SMCs were stimulated with S100B (10 μg/ml for the indicated times and subjected to ROCK1 activity assays (7-8). Aortas or SMCs were lysed using a Triton X-100 lysis buffer containing 50 mM Tris (pH 7.5), 10 mM MgCl2, 0.5 M NaCl and 1% Triton X-100. The samples were incubated with Anti-ROCK1 antibody described above for 1 hr further with Protein G coated agarose beads for overnight at 4° C., and the beads were washed three times with lysis buffer. The amount of ROCK1 associated with the beads was incubated with 50 μl kinase buffer, 1 μl 10 mM ATP (Cell Signalling) and 0.5 μg […] myosin phosphatase-1 (MYPT1)/protein phosphatase-1 regulatory (inhibitor) subunit 12A (Ppplrl2a) substrate (Upstate Biotech) at […] for 30 min. Reaction was stopped by adding sample buffer, boiled for 5 min and the amount of phosphorylated MYPT1 was examined by immunoblotting using ThrB50-phosphorylation specific antibody 36-003 (Upstate Biotechnology). […] Equal quantities of ROCK1 were treated with equal quantities of MYPT1/Ppp1r12a. Relative absorbances were measured as described above, and these were used to determine the relative activation of ROCK1. […]

`C[C@@H](N)[C@H]1CC[C@H](C(=O)Nc2ccncc2)CC1` [Y27632, reference compound]: in experiment [1] (wild-type SMCs), the “S100B-stimulated SMC proliferation in presence of inhibitor” value is reported as “significantly reduced”. Besides, the “S100B-stimulated SMC migration in presence of inhibitor” value in experiment [2] (wild-type SMCs) is “significantly reduced”.
`O=S(=O)(c1cccc2cnccc12)N1CCCNCC1` [fasudil, 5-(1,4-diazepane-1-sulfonyl)isoquinoline, reference compound]: the “S100B-stimulated SMC proliferation in presence of inhibitor” value in experiment [1] (wild-type SMCs) is on record as “significantly reduced”. The “S100B-stimulated SMC migration in presence of inhibitor” value in experiment [2] (wild-type SMCs) is “significantly reduced”.
As for PDGF [reference compound], the “SMC proliferation on incubation with stimulant” value (“SMC proliferation on incubation” below) in experiment [1] (RAGE-deficient SMCs) and in experiment [1] (wild-type SMCs) was “increased” throughout. Also, the “SMC migration on incubation with stimulant” value (“SMC migration on incubation” for short) in experiment [2] (RAGE-deficient SMCs) and in experiment [2] (wild-type SMCs) was “increased” each time.

B1: Tgf-β2: Tgf-β2 (R&D Systems), used as SMC stimulant (protein)
chain: ALDAAYCFRNVQDNCCLRPLYIDFKRDLGWKWIHEPKGYNANFCAGACPYLWSSDTQHTKVLSLYNTINPEASASPCCVSQDLEPLTILYYIGNTPKIEQLSNMIVKSCKCS
As for B1, the “SMC proliferation on incubation” value in experiment [1] (RAGE-deficient SMCs) and in experiment [1] (wild-type SMCs) was “increased” throughout. The “SMC migration on incubation” value in experiment [2] (RAGE-deficient SMCs) and in experiment [2] (wild-type SMCs) was “increased” each time.

B2: S100B: RAGE ligand S100B (protein, UniProt P04271 2-92, looked up)
Protein S100-B: SELEKAMVALIDVFHQYSGREGDKHKLKKSELKELINNELSHFLEEIKEQEVVDKVMETLDNDGDGECDFQEFMAFVAMVTTACHEFFEHE
For the molecule B2, the “SMC proliferation on incubation” value is “failed to stimulate” in experiment [1] (RAGE-deficient SMCs) and “significantly increased” in experiment [1] (wild-type SMCs). Further, the figures for the “SMC migration on incubation” value in experiment [2] (RAGE-deficient SMCs) and in experiment [2] (wild-type SMCs) were “failed to stimulate” and “significantly increased”, respectively. Also, the “ROCK1 activity upon incubation with RAGE ligand” value is on record as “failed to increase ROCK1 activity” in experiment [3] (SMCs from RAGE null mice) and “increased ROCK1 activity” in experiment [3] (primary aortic SMCs from wild-type mice).

The values are drawn from patent US20130064835A1, “RAGE REGULATES ROCK ACTIVITY IN CARDIOVASCULAR DISEASE” (priority 2009, published 2013).
